Test results as given in the supplement of paper PMC12042874.
± gives the uncertainty stated by the source.

test: amyloid nucleation score (Sup35N fusion, yeast selection) (log enrichment); library NNK3; higher = more nucleation; inactive = no reads after selection
In short: (§1)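 Peptides of 20 random codons fused to Sup35N were expressed in psi-negative yeast, induced 24 hours with 100 μM copper sulfate, then grown 7 days at 30°C on medium lacking adenine and uracil. Input and output plasmid inserts were Illumina-sequenced. Nucleation score is the DiMSum log enrichment of output over input reads, centred on the mode score of non-aggregating sequences, excluding sequences with under 100 input reads. Random libraries had three technical output replicates.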

Going from YYAATPGSYLAGGRWITLF to YYFPWLYAKYSVVIINDMEP, the amyloid nucleation score rises from 0.219 ± 0.47 to 2.64 ± 0.05.

Going from YYFRRVWTCPLIAQIIKSDL to YYIHCVWYNADKVYEG, the amyloid nucleation score rises from 0.39 ± 0.71 to 2.37 ± 0.059.

With YYDHGNFRCMSTKRPVWQVF the amyloid nucleation score was “inactive”.
For YYFRPVSPRDLSQVDCRTDL, the amyloid nucleation score was “inactive”.
In the case of YYFRRWGHS, the amyloid nucleation score is reported as “inactive”.
In the case of YYHLGLLDVSINEIRT, the amyloid nucleation score is reported as “inactive”.
For YYLCYLSVHLSMIGCKEKGR, the amyloid nucleation score was “inactive”.
With YYMRDCSYIHEFGTGVASDR the amyloid nucleation score was “inactive”.
For YYTGFTIFLLRVWLLAGVGS, the amyloid nucleation score was “inactive”.
In the case of YYVVVQADVGNI, the amyloid nucleation score is reported as “inactive”.
For YYWDKLFCMYKTAHGVSIYV, the amyloid nucleation score was “inactive”.
With YYWLLIGLLFRVLLMLVQGK the amyloid nucleation score was “inactive”.

test: amyloid nucleation score (Sup35N fusion, yeast selection) (log enrichment); library NNK2; higher = more nucleation; inactive = no reads after selection
In short: as §1

First: AAELLLSSGLVRQHAARRQY
Second: AANWGNRGYMVCEHCVIDV
The amyloid nucleation score of the first is higher: 0.695 ± 0.26 for the first, -0.054 ± 0.46 for the second.

ACCSCIIVFINFTSLFFYRF and ACGPQPETLSGLMSRGLLRR are within error of each other in amyloid nucleation score: -0.178 ± 1.1 for the first, 0.619 ± 0.64 for the second.

Compared with ACNVILCVTNPTHNVIV, ADGVSSWLTVLTFSHWRVK is lower in amyloid nucleation score: 9.254 ± 0.036 for the first, 1 ± 0.31 for the second.

First: ADIAWSCRLESNCFPTLSMM
Second: ADNVGS
The amyloid nucleation score of the first is lower: 0.255 ± 0.33 for the first, 3.71 ± 0.058 for the second.

Going from AERLRVISGWAAWYAIDTRF to AEWISLQQFLSLQKEFWIKA, the amyloid nucleation score falls from 3.82 ± 0.11 to -0.596 ± 0.76.

First: AEYSSAKGFD
Second: AFCTVSSCFMSSSLPI
The amyloid nucleation score of the first is lower: -0.794 ± 0.55 for the first, 5.3 ± 0.06 for the second.

Compared with AFCWTLWQYLGFS, AFDGGIFFSLMSFMLVWMGS is lower in amyloid nucleation score: 1.35 ± 0.16 for the first, -0.345 ± 0.56 for the second.

AFDTTPKC and AFFKR are within error of each other in amyloid nucleation score: 0.275 ± 0.32 for the first, 0.182 ± 0.38 for the second.

AFHWMF and AFNARWTEIDVPWRASPAHV are within error of each other in amyloid nucleation score: 0.544 ± 0.28 for the first, 0.657 ± 0.37 for the second.

AFNERAYYVGGLTADME and AFNWIEVCEETSPGSTTEGS are within error of each other in amyloid nucleation score: 0.753 ± 0.43 for the first, 0.318 ± 0.39 for the second.

Compared with AFPKLRAGSSLLCA, AFRMLITGPGNS is lower in amyloid nucleation score: 0.74 ± 0.29 for the first, -1.07 ± 0.49 for the second.

Going from AFRSSSPSRVHELRQMKELV to AGDLKRLSSQQLM, the amyloid nucleation score rises from 1.14 ± 0.3 to 4.03 ± 0.051.

AGLLYVSRLNWSVSQRNGVG and AGPSCL are within error of each other in amyloid nucleation score: 0.131 ± 1 for the first, 0.537 ± 0.22 for the second.

AGWNLFLEGVYVW and AHNDVNGVFLMPVRSLDFKH are within error of each other in amyloid nucleation score: -0.387 ± 1.1 for the first, -1.17 ± 0.64 for the second.

Compared with AHYIASVDWIFKM, AIAAHFGLMPMCYLCTG is higher in amyloid nucleation score: -1.32 ± 0.41 for the first, 7.25 ± 0.079 for the second.

AIFDTIYC and AILFSIFISVGRKWLFSASH are within error of each other in amyloid nucleation score: -0.541 ± 1.1 for the first, -1.78 ± 1.1 for the second.

First: AINWYYMHISMLECPAKNGS
Second: AIRCMEVKRTKSLLLVDSLS
The amyloid nucleation score of the first is lower: -0.876 ± 0.76 for the first, 0.154 ± 0.23 for the second.

First: AIRLLDVLRCRG
Second: AISDGPET
The amyloid nucleation score of the first is higher: 3.88 ± 0.087 for the first, 0.746 ± 0.43 for the second.

AISHQPLWLLCHVVHLFRNS and AKRDMAKKYLSGYHGVLWYV are within error of each other in amyloid nucleation score: 0.279 ± 0.32 for the first, 0.077 ± 0.63 for the second.

Going from AKVCLYIAICLSLVNS to ALCKFRDFFVMYNTGWHTVQ, the amyloid nucleation score falls from 2.98 ± 0.065 to -0.935 ± 1.1.

Compared with ALENNIDPLGELASVPGCSG, ALFFRTKTKHWVSCRFLMS is higher in amyloid nucleation score: 0.843 ± 0.27 for the first, 2.86 ± 0.078 for the second.

ALFYLSCQPSTGALESRYLG and ALGVPLYMIEGIGKCLLSLK are within error of each other in amyloid nucleation score: 1.73 ± 0.29 for the first, 1.24 ± 0.43 for the second.

In the case of ADLCHTGRGSMRPCETED, the amyloid nucleation score is reported as “inactive”.
In the case of AFYGL, the amyloid nucleation score is reported as “inactive”.
In the case of AGRLYNISNY, the amyloid nucleation score is reported as “inactive”.
In the case of AGWNNSMGLDE, the amyloid nucleation score is reported as “inactive”.
